Measured values from patent US20220160843A1 (priority 2019, published 2022).

How the values were obtained:
P. aeruginosa [1] = test: Minimal inhibitory concentration (MIC), modified CLSI broth microdilution in CAA or CAA/HuS; format: cell-based, Pseudomonas aeruginosa; conditions: for MIC (μg/mL) in CAA: CAA media; for MIC (μg/mL in CAA/HuS) / MIC value in CAA/HuS: CAA supplemented with 25% human serum
[2] = system: P. aeruginosa strain ATCC 17647; test: Minimal Biofilm Eradicating Concentration (MBEC), Calgary Biofilm Device; format: cell-based, Pseudomonas aeruginosa; conditions: 24 h biofilm, 24 h treatment; minimum concentration removing >95% of biofilm biomass (crystal violet)
Source text: All samples were examined in triplicate.

human erythrocytes = format: cell-based
Protocol: The hemolytic activity of the GN lysins was measured as the amount of hemoglobin released by the lysis of human erythrocytes (30). Briefly, 3 ml of fresh human blood cells (hRBCs) obtained from pooled healthy donors (BioreclamationIVT) in a polycarbonate tube containing heparin was centrifuged at 1,000×g for 5 min at 4° C. The erythrocytes obtained were washed three times with phosphate-buffered saline (PBS) solution (pH 7.2) and resuspended in […]. […] Intact erythrocytes were pelleted by centrifugation at 1,000×g for 5 min at 4° C., and the supernatant was transferred to a new 96-well plate. The release of hemoglobin was monitored by measuring the absorbance at 570 nm.

P. aeruginosa [3] = test: Time-kill assay of GN lysin activity; format: cell-based, Pseudomonas aeruginosa; conditions: for Log10 CFU/mL T = 3 hr / Log10 CFU/mL T = l hr: lysin 10 μg/mL, T = 0 7.8; for Log10 CFU/mL T = 3 hr: buffer control 7.2, limit of detection 3.7; for Log10 CFU/mL T = l hr: buffer control 7.7; for bactericidal activity in the time-kill assay format: 3-hour timepoint, 10 μg/mL, in either CAA/HuS or HEPES buffer
Protocol: All treatments were incubated at 37° C. with aeration.

[4] = system: carbapenem-resistant P. aeruginosa strains; test: Resensitization of carbapenem-resistant clinical strains using carbapenems in combination with lysins; format: cell-based
Protocol: (§1) The checkerboard assays is based on a modification of the CLSI method for MIC determination by broth microdilution (26, 29). Checkerboards were constructed by first preparing columns of a 96-well polypropylene microtiter plate, in which each well had the same amount of antibiotic diluted 2-fold along the horizontal axis. […] Summation fractional inhibitory concentrations (ΣFICs) were calculated for each drug and the minimum ΣFIC value (ΣFICmin) was used to determine synergy. ΣFICs were calculated as follows: ΣFIC=FIC A+FIC B, where FIC A is the MIC of each antibiotic in the combination/MIC of each antibiotic alone, and FIC B is the MIC of each GN lysin in the combination/MIC of each GN lysin alone. The combination is considered synergistic when the ΣFIC is ≤0.5, strongly additive when the ΣFIC is >0.5 to <1, additive with the ΣFIC is 1−<2, and antagonistic when the ΣFIC is ≥2.
Up to seven carbapenem-resistant isolates were assessed. […] See Clinical and Laboratory Standards Institute (CLSI), CLSI. […] M100 Performance Standards for Antimicrobial Susceptibility Testing; 29th Edition. Clinical and Laboratory Standards Institute, Wayne, Pa.

[5] = system: carbapenem-resistant clinical strain, WC-452; test: Checkerboard assay to examine synergy with antibiotics in CAA/HuS; format: cell-based, P. aeruginosa
Protocol: Fractional inhibitor concentration index (FICI) values were determined for all combinations; values of <0.5 indicate synergy.
as §1

[6] = CAA/HuS, ‡ indicates bactericidal activity
[7] = HEPES buffer, ‡ indicates bactericidal activity

B1: GN13: Native lysin, GenBank YP_00638255.1, SEQ ID NO: 23 (protein)
chain: MSDKRVEITGNVSGFFESGGRGVKTVSTGKGDNGGVSYGKHQLASNNGSMALFLESPFGAPYRAQFAGLKPGTAAFTSVYNKIANETPTAFERDQFQYIAASHYDPQAAKLKAEGINVDDRHVAVRECVFSVAVQYGRNTSIIIKALGSNFRGSDKDFIEKVQDYRGATVNTYFKSSSQQTRDSVKNRSQQEKQMLLKLLNS
modifications: Pseudomonas phage Lu11
MIC (μg/mL) in CAA (P. aeruginosa [1]): 8 µg/mL | MIC (μg/mL in CAA/HuS) (P. aeruginosa [1]): >128 µg/mL | MBEC [2]: 0.125 µg/mL | hemolytic activity (human erythrocytes): no hemolytic activity whatsoever

B2: GN9: Native lysin, GenBank ECJ78460.1, SEQ ID NO: 21 (protein)
chain: MKNFNEIIEHVLKHEGGYVNDPKDLGGETKYGITKRFYPDLDIKNLTIEQATEIYKKDYWDKNKVESLPQNLWHIYFDMCVNMGKRTAVKVLQRAAVNRGRDIEVDGGLGPATIGALKGVELDRVRAFRVKYYVDLITARPEQEKFYLGWFRRATEV
modifications: Marine metagenome
MIC (μg/mL) in CAA (P. aeruginosa [1]): 8 µg/mL | MIC (μg/mL in CAA/HuS) (P. aeruginosa [1]): 2 µg/mL | Log10 CFU/mL T = 3 hr (P. aeruginosa [3]; [6]): 7.3 Log10 CFU/mL | Log10 CFU/mL T = l hr (P. aeruginosa [3]; CAA/HuS): 6.8 Log10 CFU/mL | Log10 CFU/mL T = 3 hr (P. aeruginosa [3]; [7]): 5.7 Log10 CFU/mL | Log10 CFU/mL T = l hr (P. aeruginosa [3]; [7]): 6.7 Log10 CFU/mL | MBEC [2]: 0.125 µg/mL | hemolytic activity (human erythrocytes): no hemolytic activity whatsoever

B3: GN3: Native lysin, WP_012273008.1/Lysozyme, SEQ ID NO: 2 (protein, listed as Pseudomonas putida)
chain: MRTSQRGLSLIKSFEGLRLQAYQDSVGVWTIGYGTTRGVKAGMKISKDQAERMLLNDVQRFEPEVERLIKVPLNQDQWDALMSFTYNLGAANLESSTLRRLLNAGNYAAAAEQFPRWNKAGGQVLAGLTRRRAAERELFLGAA
MIC (μg/mL) in CAA (P. aeruginosa [1]): 16 µg/mL | MIC (μg/mL in CAA/HuS) (P. aeruginosa [1]): 16 µg/mL | MIC value in CAA/HuS (P. aeruginosa [1]): 16 µg/mL | bactericidal activity in the time-kill assay format (P. aeruginosa [3]): bactericidal activity | Log10 CFU/mL T = 3 hr (P. aeruginosa [3]; [6]): <3.7‡ Log10 CFU/mL | Log10 CFU/mL T = l hr (P. aeruginosa [3]; CAA/HuS): 5.8 Log10 CFU/mL | Log10 CFU/mL T = 3 hr (P. aeruginosa [3]; [7]): <3.7‡ Log10 CFU/mL | Log10 CFU/mL T = l hr (P. aeruginosa [3]; [7]): <3.7‡ Log10 CFU/mL | MBEC [2]: 0.25 µg/mL | hemolytic activity (human erythrocytes): no hemolytic activity whatsoever

B4: GN121: Modified GN37, C-terminal peptide RKKTRKRLKKIGKVLKWI, SEQ ID NO: 13 (protein)
chain: MTYTLSKRSLDNLKGVHPDLVAVVHRAIQLTPVDFAVIEGLRSVSRQKELVAAGASKTMNSRHLTGHAVDLAAYVNGIRWDWPLYDAIAVAVKAAAKELGVAIVWGGDWTTFKDGPHFELDRSKYRRKKTRKRLKKIGKVLKWI
MIC (μg/mL) in CAA (P. aeruginosa [1]): 0.5 µg/mL | MIC (μg/mL in CAA/HuS) (P. aeruginosa [1]): 0.5 µg/mL | MIC value in CAA/HuS (P. aeruginosa [1]): 0.5 µg/mL | Log10 CFU/mL T = 3 hr (P. aeruginosa [3]; [6]): <3.7‡ Log10 CFU/mL | Log10 CFU/mL T = l hr (P. aeruginosa [3]; CAA/HuS): 7.4 Log10 CFU/mL | Log10 CFU/mL T = 3 hr (P. aeruginosa [3]; [7]): <3.7‡ Log10 CFU/mL | Log10 CFU/mL T = l hr (P. aeruginosa [3]; [7]): <3.7‡ Log10 CFU/mL | MBEC [2]: 0.25 µg/mL | GN121 Alone ([4]; isolate PA19, MIC of GN121 alone (imipenem checkerboard)): 1 µg/mL | GN121 Alone ([4]; isolate PA19, MIC of GN121 alone (meropenem checkerboard)): 2 µg/mL | GN121 Combination ([4]; isolate PA19, MIC of GN121 in combination with imipenem): 0.125 µg/mL | GN121 Combination ([4]; isolate PA19, MIC of GN121 in combination with meropenem): 0.5 µg/mL | FICI ([4]; isolate PA19, imipenem + GN121): 0.155 | FICI ([4]; isolate PA19, meropenem + GN121): 0.281 | GN121 Alone ([4]; isolate PA20, MIC of GN121 alone (imipenem checkerboard)): 1 µg/mL | GN121 Alone ([4]; isolate PA20, MIC of GN121 alone (meropenem checkerboard)): 2 µg/mL | GN121 Combination ([4]; isolate PA20, MIC of GN121 in combination with imipenem): 0.25 µg/mL | GN121 Combination ([4]; isolate PA20, MIC of GN121 in combination with meropenem): 0.5 µg/mL | FICI ([4]; isolate PA20, imipenem + GN121): 0.265 | FICI ([4]; isolate PA20, meropenem + GN121): 0.313 | GN121 Alone ([4]; isolate PA21, MIC of GN121 alone (imipenem checkerboard)): 1 µg/mL | GN121 Alone ([4]; isolate PA21, MIC of GN121 alone (meropenem checkerboard)): 1 µg/mL | GN121 Combination ([4]; isolate PA21, MIC of GN121 in combination with imipenem): 0.125 µg/mL | GN121 Combination ([4]; isolate PA21, MIC of GN121 in combination with meropenem): 0.125 µg/mL | FICI ([4]; isolate PA21, imipenem + GN121): 0.155 | FICI ([4]; isolate PA21, meropenem + GN121): 0.188 | GN121 Alone ([4]; isolate PA22, MIC of GN121 alone (imipenem checkerboard)): 2 µg/mL | GN121 Alone ([4]; isolate PA22, MIC of GN121 alone (meropenem checkerboard)): 1 µg/mL | GN121 Combination ([4]; isolate PA22, MIC of GN121 in combination with imipenem): 0.25 µg/mL | GN121 Combination ([4]; isolate PA22, MIC of GN121 in combination with meropenem): 0.25 µg/mL | FICI ([4]; isolate PA22, imipenem + GN121): 0.188 | FICI ([4]; isolate PA22, meropenem + GN121): 0.313 | GN121 Alone ([4]; isolate PA23, MIC of GN121 alone (imipenem checkerboard)): 1 µg/mL | GN121 Alone ([4]; isolate PA23, MIC of GN121 alone (meropenem checkerboard)): 2 µg/mL | GN121 Combination ([4]; isolate PA23, MIC of GN121 in combination with imipenem): 0.25 µg/mL | GN121 Combination ([4]; isolate PA23, MIC of GN121 in combination with meropenem): 0.5 µg/mL | FICI ([4]; isolate PA23, imipenem + GN121): 0.257 | FICI ([4]; isolate PA23, meropenem + GN121): 0.375 | GN121 Alone ([4]; isolate PA24, MIC of GN121 alone (imipenem checkerboard)): 1 µg/mL | GN121 Alone ([4]; isolate PA24, MIC of GN121 alone (meropenem checkerboard)): 1 µg/mL | GN121 Combination ([4]; isolate PA24, MIC of GN121 in combination with imipenem): 0.125 µg/mL | GN121 Combination ([4]; isolate PA24, MIC of GN121 in combination with meropenem): 0.125 µg/mL | FICI ([4]; isolate PA24, imipenem + GN121): 0.155 | FICI ([4]; isolate PA24, meropenem + GN121): 0.156 | GN121 Alone ([4]; isolate WC-452, MIC of GN121 alone (meropenem checkerboard)): 1 µg/mL | GN121 Combination ([4]; isolate WC-452, MIC of GN121 in combination with meropenem): 0.06 µg/mL | FICI ([4]; isolate WC-452, meropenem + GN121): 0.123 | resensitization of carbapenem-resistant isolates to IPM and MEM ([4]; synergistic combinations with imipenem or meropenem, breakpoints ≤2 sensitive, 4 intermediate, ≥8 resistant): reductions of IPM and MEM MICS to below breakpoint values | synergy with antibiotics in the checkerboard assay [5]: synergize with a range of antibiotics | FICI, Amikacin ([5]; lysin + amikacin): 0.375 | FICI, Azithromycin ([5]; lysin + azithromycin): 0.188 | FICI, Aztreonam ([5]; lysin + aztreonam): 0.625 | FICI, Ciprofloxacin ([5]; lysin + ciprofloxacin): 0.313 | FICI, Colistin ([5]; lysin + colistin): 0.375 | FICI, Fosfomycin ([5]; lysin + fosfomycin): 0.375 | FICI, Gentamicin ([5]; lysin + gentamicin): 0.375 | FICI, Imipenem ([5]; lysin + imipenem): 0.375 | FICI, Meropenem ([5]; lysin + meropenem): 0.313 | FICI, Piperacillin ([5]; lysin + piperacillin): 0.375 | FICI, Rifampicin ([5]; lysin + rifampicin): 0.313 | FICI, Tobramycin ([5]; lysin + tobramycin): 0.188

B5: GN17: Native lysin, GenBank ACD38663.1, SEQ ID NO: 24 (protein, listed as Pseudomonas aeruginosa)
chain: MTLRYGDRSQEVRQLQRRLNTWAGANLYEDGHFGAATEDAVRAFQRSHGLVADGIAGPKTLAALGGADCSHLLQNADLVAAATRLGLPLATIYAVNQVESNGQGFLGNGKPAILFERHIMYRRLAAHDQVTADQLAAQFPALVNPRPGGYAGGTAEHQRLANARQIDDTAALESASWGAFQIMGFHWQRLGYISVQAFAEAMGRSESAQFEAFVRFIDTDPALHKALKARKWADFARLYNGPDYKRNLYDNKLARAYEQHANCAEASA
MIC (μg/mL) in CAA (P. aeruginosa [1]): 32 µg/mL | MIC (μg/mL in CAA/HuS) (P. aeruginosa [1]): 16 µg/mL | bactericidal activity in the time-kill assay format (P. aeruginosa [3]): bactericidal activity | Log10 CFU/mL T = 3 hr (P. aeruginosa [3]; [6]): 4.2‡ Log10 CFU/mL | Log10 CFU/mL T = l hr (P. aeruginosa [3]; CAA/HuS): 6.4 Log10 CFU/mL | Log10 CFU/mL T = 3 hr (P. aeruginosa [3]; [7]): <3.7‡ Log10 CFU/mL | Log10 CFU/mL T = l hr (P. aeruginosa [3]; [7]): 5.4 Log10 CFU/mL | MBEC [2]: 0.125 µg/mL | hemolytic activity (human erythrocytes): no hemolytic activity whatsoever
